Experimental data published in patent US20110038856A1, “METHODS OF TREATING NEOPLASTIC, AUTOIMMUNE AND INFLAMMATORY DISEASES” (Seattle Genetics, Inc., priority 2006, published 2011).

Experiments:
[1] = test system: primary human macrophages; experiment: Cytokine/chemokine production by primary human macrophages; assay type: cell-based; conditions: for production of IL-6, TNF-α, RANTES, and MCP-1: pre-incubation 3 hours with antibody, 24 hours
Procedure: Primary human macrophages were generated from long-term cultures of freshly isolated human peripheral blood mononuclear cells (PBMCs; AllCells, Emeryville, Calif. or LifeBlood, Memphis, Tenn.). PBMCs were cultured in tissue culture flasks in RPMI 1640 medium containing glutamine (Invitrogen, Grand Island, N.Y.), 10% heat-inactivated FBS, and antibiotics for 3 to 4 hours. Non-adherent cells were removed by washing with PBS and the adherent cells were cultured in OptiMem-1 medium (Invitrogen) containing 1% heat-inactivated FBS for 1 to 2 hours. The cells were washed with PBS and cultured for 10 to 14 days in X-VIVO-15 medium (Cambrex Bio Science, Walkersville, Md.) containing 500 U/ml GM-CSF (Peprotech, Rocky Hill, N.J.). […]

[2] = test system: primary human macrophages; experiment: Macrophage migration in response to chemoattractants (CytoSelect Cell Migration Assay); assay type: cell-based
Procedure: The migration of macrophages in response to challenge with plating media containing 10% human serum, 20% conditioned tumor cell media, or 50 ng/ml TGF-β, VEGF, TNF-α, or IFN-γ was evaluated using the CytoSelect Cell Migration Assay (Cell Biolabs, San Diego, Calif.). […] The study was stopped 18 hours later and migration was evaluated after dissociation of the cells from the membrane followed by detection with Cyquant GR dye.
The migration of macrophages in response to challenge with plating media containing 10% human serum or 20% conditioned tumor cell media was evaluated using the CytoSelect Cell Migration Assay (Cell Biolabs, San Diego, Calif.). […] The studies were stopped 18 h later and migration was evaluated after dissociation of the cells from the membrane followed by detection with Cyquant GR dye.

KG-1 AML cell line = experiment: Cytokine production by KG-1 AML cell line; assay type: cell-based; conditions: 2.5 μg/ml pre-treatment, then 1 ng/ml TNF-alpha; media harvested 18 h later; versus control antibody
Procedure: Media was harvested 18 h later for cytokine analyses.

HL-60 cells = experiment: Mouse AML model, HL-60 cells injected intravenously; assay type: in vivo, mice; conditions: q4d×5, ip, FIG. 24
Procedure: Mice were implanted with an AML cell line, HL-60, as follows: 5 million HL-60 cells were injected intravenously. The mice were treated with lintuzumab (10 mg/kg, q4d×4, ip), cytarabine (1 mg/kg, 5 mg/kg or 25 mg/kg, q1d×10, or 50 mg/kg or 100 mg/kg, q2d×5, ip) or lintuzumab with cytarabine (dosed as described previously). Treatment began on day one.
To confirm the data of the in vitro study, mice were implanted with an AML cell line, HL-60, as follows: 5 million HL-60 cells were injected intravenously. […] Treatment began on day one.

[3] = test system: primary human macrophages
Procedure: (§1) Macrophages were harvested, counted, and cultured in 96-well plates at 35,000 cells per well. G-CSF-mobilized CD14^+ monocytes (Cambrex) were cultured in 96-well plates at 100,000 cells per well (adherent cells) in sterile polypropylene dishes (non-adherent cells).

[4] = test system: primary human CD14+ monocytes
Procedure: as §1

[5] = test system: patients with relapsed and refractory acute myeloid leukemia (AML); conditions: low dose with infrequent administration; cited from earlier work
[6] = test system: patients with advanced myeloid malignancies (AML, MDS, CMML); experiment: Phase 1 single-arm dose escalation trial in patients with advanced myeloid malignancies
Procedure: Entry criteria included CD33 expression on >50% of the marrow blasts to ensure that adequate target antigen was present. […] Clinical response was assessed by bone marrow morphology and hematologic improvement. […] Among AML patients, 6 had antecedent hematologic disorder. Dosing cohorts included 1.5 (6), 2.5 (4), 4 (4), and 8 mg/kg (17).

CD33 [7] = molecular target: T1, CD33 (Homo sapiens, UniProt P20138); experiment: CD33 tyrosine phosphorylation in CD33-positive AML lines (CD33 immunoprecipitation, anti-phosphotyrosine Western blot); assay type: cell-based; parameters: endogenous in cells; host or cells: HL-60 (ATCC); primary human CD14+ monocytes (Cambrex); macrophages derived from human PBMCs
T1 sequence (P20138 18-364): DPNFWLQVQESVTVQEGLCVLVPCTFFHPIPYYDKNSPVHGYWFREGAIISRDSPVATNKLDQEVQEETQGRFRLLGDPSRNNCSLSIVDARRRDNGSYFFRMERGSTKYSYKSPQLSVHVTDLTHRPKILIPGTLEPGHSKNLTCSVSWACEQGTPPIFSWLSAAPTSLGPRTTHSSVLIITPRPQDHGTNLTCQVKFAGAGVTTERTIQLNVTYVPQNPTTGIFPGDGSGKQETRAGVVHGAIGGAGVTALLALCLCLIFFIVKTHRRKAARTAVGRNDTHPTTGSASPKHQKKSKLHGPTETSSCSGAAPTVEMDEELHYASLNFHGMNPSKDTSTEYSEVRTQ
Procedure: CD33-positive cell lines were treated with anti-CD33 antibodies (lintuzumab and certain commercially available antibodies). Cell extracts were prepared and CD33 was immunoprecipitated using an anti-CD33 antibody (MY9 clone; Beckman Coulter, Calif.). Western blotting was performed with an anti-phosphotyrosine antibody (4G10; Upstate Biotechnologies, Inc., Lake Placid, N.Y.). […] Two forms of CD33 were detected (due to either splicing of CD33 mRNA or post-translational modification of CD33).

CD33 [8] = molecular target: T1, CD33; experiment: Recruitment of SHP phosphatases / Syk to CD33 in HL-60 cells (immunoprecipitation, Western blot); assay type: cell-based; parameters: endogenous in cells; host or cells: HL-60 (ATCC); primary human CD14+ monocytes (Cambrex); macrophages derived from human PBMCs
Procedure: To determine whether the humanized M195 antibody also recruits SHP phosphatases, HL-60 cells were treated with soluble or cross-linked anti-CD33 antibodies. Cell extracts were prepared and CD33 was immunoprecipitated with an anti-CD33 antibody (MY9 clone). Western blotting was performed with an anti-SHP-1 antibody (sc-287; Santa Cruz Biotechnology, Inc., Santa Cruz, Calif.).

## SGN-33: anti-CD33 antibody, a humanized version of mouse monoclonal antibody M195
[1]; macrophages treated 1 h prior to IFN-γ, LPS, or TGF-β, supernatants 18 h later, FIG. 18
  levels of IL-6, TNF-α, MCP-1, and RANTES: significantly reduced
[1]; in response to IFN-γ, FIG. 6
  production of IL-6, TNF-α, RANTES, and MCP-1: reduced production
[1]; in response to conditioned media from RPMI-8226 and Karpus-620 cells, FIG. 7
  production of IL-6, TNF-α, RANTES, and MCP-1: reduced production
[1]; primary human macrophages, various doses of SGN-33, 1 hr prior to IFN-γ, 18 h, p<0.05, FIG. 20
  levels of TNF-α: significantly reduced levels of TNF-α in a dose-dependent manner
[2]; 10% human serum or 20% conditioned media from RPMI 8226 cells, p<0.05, FIG. 21
  macrophage migration: significantly reduced
[2]; SGN-33 added to neuraminidase-treated macrophages, versus neuraminidase alone, FIG. 14C
  blocking of macrophage migration: greater blocking effect
[2]; cells pre-treated, 10% serum or conditioned medium, FIG. 14B
  movement of the macrophages toward chemoattractants: significantly reduced
[2]; in response to conditioned tumor cell media, TGF-β, VEGF, TNF-α, and IFN-γ
  migration of macrophages: significantly opposed the migration
KG-1 AML cell line
  production of IL-8, IP-10, M11b, RANTES, and MCP-1: reduced the production
HL-60 cells; SGN-33 30 mg/kg
  survival rate: ~85%
HL-60 cells; SGN-33 3 or 10 mg/kg
  survival rate: ~50%
[3]
  cell viability: without interfering with cell viability
[4]
  cell viability: not due to an adverse effect
[5]
  blast cells: induced significant reductions in blast cells
[6]; 1.5 mg/kg/wk, N=6, previously untreated patients, average age 76 years
  tolerability: well tolerated
[6]; among 18 patients with AML
  patients achieving CR: 4
  patients achieving CR with incomplete platelet recovery: 1
[6]; an elderly patient with previously untreated AML
  antitumor activity: antitumor activity was observed
[6]; at 1.5 mg/kg/wk, N=6
  maximal tolerated dose: without any evidence that a maximal tolerated dose has been reached
[6]; doses 1.5 to 8 mg/kg
  exposure (AUC): increased relative to dose
[6]; doses up to 8 mg/kg/wk
  tolerability: well tolerated
[6]; first 15 patients tested
  anti-SGN-33 immune responses: No anti-SGN-33 immune responses were detected
[6]; human, in vivo
  Grade 4 adverse events considered related to antibody: none
  infusion reactions during subsequent doses: uncommon
[6]; repeat dosing
  accumulation: accumulation was documented with repeat dosing
[6]; tumor lysis syndrome at 4 mg/kg, febrile neutropenia at 8 mg/kg
  Grade 3 adverse events considered related to antibody: 2
[6]; weekly iv doses of 1.5 to 8 mg/kg
  chills associated with the first infusion (most common drug-related adverse event): 11/31
[6]; weekly iv doses of 1.5 to 8 mg/kg, 31 patients
  dose limiting toxicity: has not been observed
CD33 [7]; HL-60 and U937 cells, FIG. 2
  CD33 tyrosine phosphorylation, soluble versus cross-linked antibody: more effective than cross-linked antibody
CD33 [7]; HL-60 and U937 cells, soluble or cross-linked antibody, compared with control human IgG1, FIG. 2
  CD33 tyrosine phosphorylation: stimulated CD33 tyrosine phosphorylation
CD33 [7]; HL-60 cells, both soluble and cross-linked antibody, FIG. 1
  CD33 tyrosine phosphorylation: stimulated CD33 tyrosine phosphorylation
CD33 [8]; data not shown
  recruitment of SHP-2: did not recruit
  recruitment of Syk: did not recruit
CD33 [8]; soluble or cross-linked antibody, FIG. 3
  recruitment of SHP-1 to CD33: recruited SHP-1 to CD33
